Experimental data taken from IntAct's records for PubMed 31515488.

B1: Bcl-2-interacting killer (Homo sapiens), Q13323 (parent)
chain: MSEVRPLSRDILMETLLYEQLLEPPTMEVLGMTDSEEDLDPMEDFDSLECMEGSDALALRLACIGDEMDVSLRAPRLAQLSEVAMHSLGLAFIYDQTEDIRDVLRSFMDGFTTLKENIMRFWRSPNPGSWVSCEQVLLALLLLLALLLPLLSGGLHLLLK
partner: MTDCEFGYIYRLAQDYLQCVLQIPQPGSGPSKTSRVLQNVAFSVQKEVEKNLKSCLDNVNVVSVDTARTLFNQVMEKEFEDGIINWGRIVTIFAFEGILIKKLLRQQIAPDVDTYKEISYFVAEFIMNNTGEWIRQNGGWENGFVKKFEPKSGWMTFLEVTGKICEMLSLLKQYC
B2: Peroxisomal bifunctional enzyme (Homo sapiens), Q08426 (parent)
chain: MAEYTRLHNALALIRLRNPPVNAISTTLLRDIKEGLQKAVIDHTIKAIVICGAEGKFSAGADIRGFSAPRTFGLTLGHVVDEIQRNEKPVVAAIQGMAFGGGLELALGCHYRIAHAEAQVGLPEVTLGLLPGARGTQLLPRLTGVPAALDLITSGRRILADEALKLGILDKVVNSDPVEEAIRFAQRVSDQPLESRRLCNKPIQSLPNMDSIFSEALLKMRRQHPGCLAQEACVRAVQAAVQYPYEVGIKKEEELFLYLLQSGQARALQYAFFAERKANKWSTPSGASWKTASARPVSSVGVVGLGTMGRGIVISFARARIPVIAVDSDKNQLATANKMITSVLEKEASKMQQSGHPWSGPKPRLTSSVKELGGVDLVIEAVFEEMSLKKQVFAELSAVCKPEAFLCTNTSALDVDEIASSTDRPHLVIGTHFFSPAHVMKLLEVIPSQYSSPTTIATVMNLSKKIKKIGVVVGNCFGFVGNRMLNPYYNQAYFLLEEGSKPEEVDQVLEEFGFKMGPFRVSDLAGLDVGWKSRKGQGLTGPTLLPGTPARKRGNRRYCPIPDVLCELGRFGQKTGKGWYQYDKPLGRIHKPDPWLSKFLSRYRKTHHIEPRTISQDEILERCLYSLINEAFRILGEGIAASPEHIDVVYLHGYGWPRHKGGPMFYASTVGLPTVLEKLQKYYRQNPDIPQLEPSDYLKKLASQGNPPLKEWQSLAGSPSSKL
partner: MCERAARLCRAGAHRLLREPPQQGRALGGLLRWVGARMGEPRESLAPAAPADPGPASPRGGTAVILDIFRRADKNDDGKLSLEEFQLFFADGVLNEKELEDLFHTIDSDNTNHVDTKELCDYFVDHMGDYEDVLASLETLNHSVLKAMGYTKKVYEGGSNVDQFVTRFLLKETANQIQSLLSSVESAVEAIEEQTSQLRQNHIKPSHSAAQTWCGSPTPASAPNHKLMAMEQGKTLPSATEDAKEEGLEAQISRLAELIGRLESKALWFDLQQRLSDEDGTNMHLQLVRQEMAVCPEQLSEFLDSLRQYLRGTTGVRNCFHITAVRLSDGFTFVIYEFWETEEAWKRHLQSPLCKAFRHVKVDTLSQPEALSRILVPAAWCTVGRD
B3: MTRF1L release factor glutamine methyltransferase (Homo sapiens), Q9Y5R4 (parent)
chain: MELWGRMLWALLSGPGRRGSTRGWAFSSWQPQPPLAGLSSAIELVSHWTGVFEKRGIPEARESSEYIVAHVLGAKTFQSLRPALWTQPLTSQQLQCIRELSSRRLQRMPVQYILGEWDFQGLSLRMVPPVFIPRPETEELVEWVLEEVAQRSHAVGSPGSPLILEVGCGSGAISLSLLSQLPQSRVIAVDKREAAISLTHENAQRLRLQDRIWIIHLDMTSERSWTHLPWGPMDLIVSNPPYVFHQDMEQLAPEIRSYEDPAALDGGEEGMDIITHILALAPRLLKDSGSIFLEVDPRHPELVSSWLQSRPDLYLNLVAVRRDFCGRPRFLHIRRSGP
partner: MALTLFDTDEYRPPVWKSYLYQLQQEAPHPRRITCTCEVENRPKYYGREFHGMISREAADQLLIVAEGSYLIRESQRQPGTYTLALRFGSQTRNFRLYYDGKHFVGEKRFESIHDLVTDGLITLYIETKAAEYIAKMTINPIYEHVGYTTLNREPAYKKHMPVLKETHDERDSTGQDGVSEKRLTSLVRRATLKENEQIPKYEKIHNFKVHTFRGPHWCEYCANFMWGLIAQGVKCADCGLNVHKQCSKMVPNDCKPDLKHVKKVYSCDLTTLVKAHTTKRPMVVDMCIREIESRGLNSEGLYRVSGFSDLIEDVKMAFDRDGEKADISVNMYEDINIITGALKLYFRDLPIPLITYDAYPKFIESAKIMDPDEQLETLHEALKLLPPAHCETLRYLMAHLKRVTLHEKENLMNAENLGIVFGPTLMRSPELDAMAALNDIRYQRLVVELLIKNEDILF
B4: Cancer/testis antigen 2 (Homo sapiens), O75638 (parent)
chain: MQAEGRGTGGSTGDADGPGGPGIPDGPGGNAGGPGEAGATGGRGPRGAGAARASGPRGGAPRGPHGGAASAQDGRCPCGARRPDSRLLELHITMPFSSPMEAELVRRILSRDAAPLPRPGAVLKDFTVSGNLLFMSVRDQDREGAGRMRVVGWGLGSASPEGQKARDLRTPKHKVSEQRPGTPGPPPPEGAQGDGCRGVAFNVMFSAPHI
B5: Calcium-binding and coiled-coil domain-containing protein 2 (Homo sapiens), Q13137 (parent)
chain: MEETIKDPPTSAVLLDHCHFSQVIFNSVEKFYIPGGDVTCHYTFTQHFIPRRKDWIGIFRVGWKTTREYYTFMWVTLPIDLNNKSAKQQEVQFKAYYLPKDDEYYQFCYVDEDGVVRGASIPFQFRPENEEDILVVTTQGEVEEIEQHNKELCKENQELKDSCISLQKQNSDMQAELQKKQEELETLQSINKKLELKVKEQKDYWETELLQLKEQNQKMSSENEKMGIRVDQLQAQLSTQEKEMEKLVQGDQDKTEQLEQLKKENDHLFLSLTEQRKDQKKLEQTVEQMKQNETTAMKKQQELMDENFDLSKRLSENEIICNALQRQKERLEGENDLLKRENSRLLSYMGLDFNSLPYQVPTSDEGGARQNPGLAYGNPYSGIQESSSPSPLSIKKCPICKADDICDHTLEQQQMQPLCFNCPICDKIFPATEKQIFEDHVFCHSL
partner: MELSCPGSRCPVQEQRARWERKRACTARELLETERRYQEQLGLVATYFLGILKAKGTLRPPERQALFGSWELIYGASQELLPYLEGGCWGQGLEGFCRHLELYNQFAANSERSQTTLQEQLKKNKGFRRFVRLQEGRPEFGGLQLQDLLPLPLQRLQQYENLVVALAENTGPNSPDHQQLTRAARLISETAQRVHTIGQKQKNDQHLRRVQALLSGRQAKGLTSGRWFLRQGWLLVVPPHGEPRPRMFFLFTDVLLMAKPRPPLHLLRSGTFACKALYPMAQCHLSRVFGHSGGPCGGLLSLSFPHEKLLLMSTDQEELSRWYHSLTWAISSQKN
B6: Low-density lipoprotein receptor class A domain-containing protein 1 (Homo sapiens), Q5T700 (parent)
chain: MNKVFPQGENGYTAAESKAHPGGEAGGGHLCCSRRGACLSASLLLLLATVAALIALVTILGLPSCTPGAQACITLTNRTGFLCHDQRSCIPASGVCDGVRTCTHGEDEDESLCRDVPQSLPHFLVAHCGDPASWIYSDQKCDGTNNCGDCSDELSPVTVCPPCGPGWWRCPSTFFKYCDCIPRHLCRDHVQHCSDWSDEYACPGP
partner: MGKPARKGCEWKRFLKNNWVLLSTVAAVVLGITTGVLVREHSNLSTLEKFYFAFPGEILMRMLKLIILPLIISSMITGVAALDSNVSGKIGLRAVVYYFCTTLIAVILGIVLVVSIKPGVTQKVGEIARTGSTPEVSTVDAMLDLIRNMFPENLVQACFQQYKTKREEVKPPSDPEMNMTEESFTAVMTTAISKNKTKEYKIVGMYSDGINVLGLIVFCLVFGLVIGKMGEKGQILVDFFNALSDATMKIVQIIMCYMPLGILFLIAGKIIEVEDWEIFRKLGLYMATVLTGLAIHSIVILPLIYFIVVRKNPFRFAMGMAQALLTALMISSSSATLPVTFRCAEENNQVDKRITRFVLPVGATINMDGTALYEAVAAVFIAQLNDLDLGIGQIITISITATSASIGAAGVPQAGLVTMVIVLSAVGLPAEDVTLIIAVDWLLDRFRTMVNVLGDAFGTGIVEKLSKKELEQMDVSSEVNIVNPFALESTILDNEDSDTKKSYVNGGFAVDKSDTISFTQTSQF
B7: Transmembrane protein 79 (Homo sapiens), Q9BSE2 (parent)
chain: MTEQETLALLEVKRSDSPEKSSPQALVPNGRQPEGEGGAESPGAESLRVGSSAGSPTAIEGAEDGLDSTVSEAATLPWGTGPQPSAPFPDPPGWRDIEPEPPESEPLTKLEELPEDDANLLPEKAARAFVPIDLQCIERQPQEDLIVRCEAGEGECRTFMPPRVTHPDPTERKWAEAVVRPPGCSCGGCGSCGDREWLRAVASVGAALILFPCLLYGAYAFLPFDVPRLPTMSSRLIYTLRCGVFATFPIVLGILVYGLSLLCFSALRPFGEPRREVEIHRRYVAQSVQLFILYFFNLAVLSTYLPQDTLKLLPLLTGLFAVSRLIYWLTFAVGRSFRGFGYGLTFLPLLSMLMWNLYYMFVVEPERMLTATESRLDYPDHARSASDYRPRPWG
partner: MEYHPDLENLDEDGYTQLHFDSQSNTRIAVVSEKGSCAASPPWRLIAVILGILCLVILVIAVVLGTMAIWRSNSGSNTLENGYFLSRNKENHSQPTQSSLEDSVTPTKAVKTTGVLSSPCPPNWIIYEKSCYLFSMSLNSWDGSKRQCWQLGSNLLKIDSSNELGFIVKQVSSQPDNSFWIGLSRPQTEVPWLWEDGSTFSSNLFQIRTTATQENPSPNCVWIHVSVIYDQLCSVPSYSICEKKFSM
B8: EGF-containing fibulin-like extracellular matrix protein 1 (Homo sapiens), Q12805 (parent)
chain: MLKALFLTMLTLALVKSQDTEETITYTQCTDGYEWDPVRQQCKDIDECDIVPDACKGGMKCVNHYGGYLCLPKTAQIIVNNEQPQQETQPAEGTSGATTGVVAASSMATSGVLPGGGFVASAAAVAGPEMQTGRNNFVIRRNPADPQRIPSNPSHRIQCAAGYEQSEHNVCQDIDECTAGTHNCRADQVCINLRGSFACQCPPGYQKRGEQCVDIDECTIPPYCHQRCVNTPGSFYCQCSPGFQLAANNYTCVDINECDASNQCAQQCYNILGSFICQCNQGYELSSDRLNCEDIDECRTSSYLCQYQCVNEPGKFSCMCPQGYQVVRSRTCQDINECETTNECREDEMCWNYHGGFRCYPRNPCQDPYILTPENRCVCPVSNAMCRELPQSIVYKYMSIRSDRSVPSDIFQIQATTIYANTINTFRIKSGNENGEFYLRQTSPVSAMLVLVKSLSGPREHIVDLEMLTVSSIGTFRTSSVLRLTIIVGPFSF
B9: Calcium-binding and coiled-coil domain-containing protein 2 (Homo sapiens), Q13137 (parent)
chain: B5 chain

Variants of: B1
Settings: with BCL2A1, Q16548

| Variant | effect of a mutation on the interaction |
| --- | --- |
| D69E | with no effect |

Variants of: B2
Settings: with neca2_human NECAB2, Q7Z6G3

| Variant | effect of a mutation on the interaction |
| --- | --- |
| S703F | with no effect |
| R483Q | disrupting interaction strength |
| I646T | disrupting interaction strength |
| L715S | disrupting interaction strength |

Variants of: B3
Settings: with chin_human CHN1, P15882

| Variant | effect of a mutation on the interaction |
| --- | --- |
| H200Q | disrupting interaction strength |

Variants of: B4
Settings: with ubql1_human UBQLN1, Q9UMX0
ubql1_human UBQLN1, Q9UMX0, sequence (Q9UMX0 whole entry): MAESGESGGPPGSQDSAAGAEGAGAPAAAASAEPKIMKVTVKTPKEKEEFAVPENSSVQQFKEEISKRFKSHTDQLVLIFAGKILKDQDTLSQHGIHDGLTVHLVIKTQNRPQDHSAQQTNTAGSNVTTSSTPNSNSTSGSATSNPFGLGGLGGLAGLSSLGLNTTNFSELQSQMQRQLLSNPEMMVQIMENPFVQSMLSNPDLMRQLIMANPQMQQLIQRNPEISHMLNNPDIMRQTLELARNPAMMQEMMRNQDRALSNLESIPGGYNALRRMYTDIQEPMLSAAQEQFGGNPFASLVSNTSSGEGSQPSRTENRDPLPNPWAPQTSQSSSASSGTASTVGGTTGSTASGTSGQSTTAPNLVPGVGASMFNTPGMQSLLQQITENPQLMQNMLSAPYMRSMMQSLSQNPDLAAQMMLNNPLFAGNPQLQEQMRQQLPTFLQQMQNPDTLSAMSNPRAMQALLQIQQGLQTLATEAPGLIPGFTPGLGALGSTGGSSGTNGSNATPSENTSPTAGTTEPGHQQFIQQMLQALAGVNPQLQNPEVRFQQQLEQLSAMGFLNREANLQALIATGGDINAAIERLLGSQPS

| Variant | effect of a mutation on the interaction |
| --- | --- |
| A80T | with no effect |

Variants of: B4
Settings: with trip6_human TRIP6, Q15654
trip6_human TRIP6, Q15654, sequence (Q15654 whole entry): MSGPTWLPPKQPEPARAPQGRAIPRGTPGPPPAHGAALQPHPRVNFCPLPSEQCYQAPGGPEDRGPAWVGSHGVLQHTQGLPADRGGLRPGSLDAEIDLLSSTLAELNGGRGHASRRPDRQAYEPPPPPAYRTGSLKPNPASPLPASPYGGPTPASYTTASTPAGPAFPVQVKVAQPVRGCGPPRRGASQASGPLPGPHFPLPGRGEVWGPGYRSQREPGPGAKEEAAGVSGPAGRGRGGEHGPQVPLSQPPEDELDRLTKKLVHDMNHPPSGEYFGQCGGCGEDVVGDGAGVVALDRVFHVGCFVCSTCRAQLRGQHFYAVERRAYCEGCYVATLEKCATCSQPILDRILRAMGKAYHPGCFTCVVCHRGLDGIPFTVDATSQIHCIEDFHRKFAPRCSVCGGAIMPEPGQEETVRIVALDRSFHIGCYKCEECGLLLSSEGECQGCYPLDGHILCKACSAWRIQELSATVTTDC

| Variant | effect of a mutation on the interaction |
| --- | --- |
| A80T | with no effect |

Variants of: B5
Settings: with arg39_human ARHGEF39, Q8N4T4

| Variant | effect of a mutation on the interaction |
| --- | --- |
| V248A | with no effect |

Variants of: B6
Settings: with eaa3_human SLC1A1, P43005

| Variant | effect of a mutation on the interaction |
| --- | --- |
| G105S | with no effect |
| E108K | with no effect |

Variants of: B7
Settings: with clc7a_human CLEC7A

| Variant | effect of a mutation on the interaction |
| --- | --- |
| V322I | with no effect |

Variants of: B8
Settings: with sgta_human SGTA

| Variant | effect of a mutation on the interaction |
| --- | --- |
| D49A | with no effect |

Variants of: B8
Settings: with ric8a_human RIC8A

| Variant | effect of a mutation on the interaction |
| --- | --- |
| D49A | with no effect |

Variants of: B9
Settings: with leg8_human LGALS8, O00214
leg8_human LGALS8, O00214, sequence (O00214 whole entry): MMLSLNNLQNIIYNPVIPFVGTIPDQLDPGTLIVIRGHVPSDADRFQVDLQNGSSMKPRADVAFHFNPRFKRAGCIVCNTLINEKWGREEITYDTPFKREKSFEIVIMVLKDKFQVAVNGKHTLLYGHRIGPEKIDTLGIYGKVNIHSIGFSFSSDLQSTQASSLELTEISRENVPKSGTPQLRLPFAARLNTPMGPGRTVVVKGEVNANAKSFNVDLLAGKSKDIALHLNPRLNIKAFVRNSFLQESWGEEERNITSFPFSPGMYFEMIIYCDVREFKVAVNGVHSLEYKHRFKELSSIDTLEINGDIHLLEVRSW

| Variant | effect of a mutation on the interaction |
| --- | --- |
| T255A | with no effect |
| E222K | with no effect |
| P389A | with no effect |
| T273A | with no effect |

Variants of: B9
Settings: with smrd1_human SMARCD1, Q96GM5
smrd1_human SMARCD1, Q96GM5, sequence (Q96GM5 whole entry): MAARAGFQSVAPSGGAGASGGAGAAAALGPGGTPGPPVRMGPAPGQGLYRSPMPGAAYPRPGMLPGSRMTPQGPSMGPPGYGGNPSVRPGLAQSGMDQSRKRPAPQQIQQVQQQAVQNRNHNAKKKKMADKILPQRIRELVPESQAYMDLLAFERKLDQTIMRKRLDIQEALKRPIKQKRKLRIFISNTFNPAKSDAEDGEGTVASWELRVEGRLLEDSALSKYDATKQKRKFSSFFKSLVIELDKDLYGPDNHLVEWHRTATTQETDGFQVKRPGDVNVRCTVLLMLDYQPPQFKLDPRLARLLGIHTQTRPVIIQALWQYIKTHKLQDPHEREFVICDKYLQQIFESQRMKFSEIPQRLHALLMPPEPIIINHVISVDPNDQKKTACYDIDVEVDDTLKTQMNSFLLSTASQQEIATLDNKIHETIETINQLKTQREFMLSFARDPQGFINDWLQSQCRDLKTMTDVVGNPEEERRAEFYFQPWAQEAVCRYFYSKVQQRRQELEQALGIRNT

| Variant | effect of a mutation on the interaction |
| --- | --- |
| E222K | with no effect |

Variants of: B9
Settings: with tcl1a_human TCL1A

| Variant | effect of a mutation on the interaction |
| --- | --- |
| E222K | with no effect |
| P389A | with no effect |
| T273A | with no effect |

Variants of: B9
Settings: with dus12_human DUSP12, Q9UNI6
dus12_human DUSP12, Q9UNI6, sequence (Q9UNI6 whole entry): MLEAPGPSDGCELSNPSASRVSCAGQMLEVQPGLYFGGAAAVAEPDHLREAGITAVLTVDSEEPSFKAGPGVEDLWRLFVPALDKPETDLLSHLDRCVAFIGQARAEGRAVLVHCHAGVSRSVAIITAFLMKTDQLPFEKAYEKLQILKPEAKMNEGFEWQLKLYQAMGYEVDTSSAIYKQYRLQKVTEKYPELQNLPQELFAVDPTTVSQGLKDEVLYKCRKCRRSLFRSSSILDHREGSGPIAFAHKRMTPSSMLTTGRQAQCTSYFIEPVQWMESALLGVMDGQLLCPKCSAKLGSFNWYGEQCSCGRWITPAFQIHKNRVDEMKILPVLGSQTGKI

| Variant | effect of a mutation on the interaction |
| --- | --- |
| P389A | with no effect |
| T273A | with no effect |

Variants of: B9
Settings: with tekt3_human TEKT3, Q9BXF9
tekt3_human TEKT3, Q9BXF9, sequence (Q9BXF9 whole entry): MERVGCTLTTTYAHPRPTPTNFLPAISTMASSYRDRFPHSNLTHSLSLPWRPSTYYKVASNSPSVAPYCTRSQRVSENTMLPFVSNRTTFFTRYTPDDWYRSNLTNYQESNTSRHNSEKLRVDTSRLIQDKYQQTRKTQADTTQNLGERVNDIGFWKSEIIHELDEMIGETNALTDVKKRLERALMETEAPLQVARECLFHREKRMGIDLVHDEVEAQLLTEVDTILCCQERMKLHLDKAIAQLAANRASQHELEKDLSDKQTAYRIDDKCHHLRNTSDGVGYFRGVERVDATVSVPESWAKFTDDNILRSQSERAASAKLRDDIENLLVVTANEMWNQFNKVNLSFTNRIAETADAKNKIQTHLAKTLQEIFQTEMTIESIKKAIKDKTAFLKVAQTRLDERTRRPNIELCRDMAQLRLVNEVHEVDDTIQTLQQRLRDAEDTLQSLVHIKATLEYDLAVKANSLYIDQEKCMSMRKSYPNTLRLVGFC

| Variant | effect of a mutation on the interaction |
| --- | --- |
| V248A | with no effect |
